Measurements reported in the supplement of paper PMC12455559.

Assay: purified protein yield per well (BCA); higher = higher soluble expression
How it was run: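 Purified protein yield per well is reported, as measured by the Pierce Rapid Gold BCA kit. The enzymes came from E. coli C41(DE3) autoinduction cultures of 2 mL with 100 µg/mL kanamycin, held at 37 °C for 2 h and 18 °C for 40 h, then lysed and purified on Ni-charged magnetic beads with SUMO protease release. The detection threshold is 25 ug (0.1 mg/mL), and lower values are under it.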

Row | Sequence | purified protein yield per well
1 | RPAPATTAASQSTQRGPDPTVAMIEATRGPFATAQVSVPAGHGFGGGMIYYPTDTSQGTWGALAIVPGYSALFANEEAWMGPWLSSFGFVVIGVETNTRTDSDSQRAAEVLAALDYLTTQSPVRNEVDPARLSVLGHSAGGAGVIEAAEQRPSLRALIGLAPGYPGQGLSMATDQVPALVVGGQADTTVTPSYLANLYGTLPASTQSDFAQIAGADHVYYTHPNNVEMKLIIPWLKLFVDSDSRYEQFLCPSLPDPSTISAYQPKCPYTPPGGSSSSSSSSSSSSASSSSPTTPTTTTSSTPSTSCTATYQTQNSWPGGFQGLVTVTAGPAAISSWTVKWNLSSGQSITQVWSGTLSTSGSAVSVGNASYNGSLAPGASATFGFLADGSPSTPTLSCTGS [ESM120] | < 25 µg
2 | RPAPEAAAPQAAQGNPYQRGPDPTVAAIEASRGPFATAQMSVAPGNGFNGGVVYYPTDTSLGTWGALAIVPGYTALCADEEAWMGPWLSSFGFAVICVETNTRTDDAGTRASELLAGLDWLTTQSPVRAEIDPNRLSVLGHSAGGAGAIIAAERRPALKAMIGLAPGFPGNGLSMATDTVPTLVVGGQNDTVVTPSYLSGLYATLPAGTQSGFAQIAGADHVYYTRPNNVEMKLLIPWLKVFVDSDTRYTQFLCPALPDPSGISAYQPKCPYVPTGGTTPPPGGQSVHAVGAGKCLTVPGADPAAGTQTDISTCDGGTGQVWTRTSSGQLTVSTGGTTMCLDAAGAGVSPGTRVQVWPCNGGSNQQWRVNANGTITGAQSGLCLDVTGASTANGALVELWTCNGGSNQQWALQ [TEP183] | < 25 µg
3 | RPRDSAPANPYQRGPDPTVAMIESSTGPFATTSASVPAGHGFNGGTVYYPTDTSLGTWGALAIVPGYSALFANEEAWMGPWLSSFGFVVLGVETNSRTDSADARGTELLAALDYLTTQSPVRDRVDPNRLAVLGHSAGGAGAMLAAENRPSLKAAIGLAPGSPVGNLSLATDKVPTMVLGGQNDTVVTPSYLSGLYATMPASTQSVFAQIAGADHVYYTHPNNVEMKLLIPWLKTFLDSDTRHPPFLCPAPPDPRSISIYTPKCPYVPGGGTPPGGGNTGPLHAVGAAKCLAAPPAGAAGTQVTIGGCDGRAGQTWTRTAAAELTVTPAGTPLCLDASGQGTSPGTKVIVWSCNGQANQQWNLNADGSVTAARSGLCLDVTGASTAEGAPVELWSCNGGSNQRWSLG [TEP095] | < 25 µg
4 | RPSAENPYERGPAPTVASIEAARGPFGTAETRVSATAVRGFGGGTIYYPTDTSQGTFGAVAVAPGFTASQSSMSWLGPRLASQGFVIFTIDTLGRYDQPAARGDQLLAALDYLTQSSSVRGRIDGSRLAVMGHSMGGGGSLEAAKDRPALQAAIPLTPWNATKNWSSVRTPTLIIGAERDSVASVAAHSEPFYASLPSTLDRAYLELAGASHFAPNVANVTIAKYSISWLKRFVDNDTRYEQFLCPLPSGSAISEYRGNCPHQG [TEP152] | < 25 µg
5 | RPSSAATSLAATQRGPDPTVAMIEATRGPFATAQVSVPSGHGFGGGMIYYPTDTSLGTWGALAIVPGYSALFANEEAWMGPWLSSFGFVVIGVETNTRTDSDSQRAAELQAALDYLTTQSPVRNQVDPTRLSVLGHSAGGAGAIEEAEQHPSLRALIGLAPGFPGQGLSMATDKVPSLIIGGQADGTVTPSYLANLYGTLPASTQSAFAQIAGADHVYYTHPNNVEMKLIIPWLKLFVDGDNRYQQFLCPALPDPSTISAYQPKCPYTPPGGSTSSSSSSTTTTTTTTSTTPTSTSSSPSGSCSATYQTQNYWPGGFQGLVTVTAGSAPISKWTVKWTLSSGQTITQVWNGTLSTSGSAVSVANVSYNGSLSPGTSTTFGFLANGPTSAPTLSCTGS [ESM039] | < 25 µg
6 | RSAPDAAAPRAASGNPYQRGPDPTVASIEATRGPFATAQLNVAPGNGFNGGVVSYPTDTSLGTWGALAIVPGYSALCADEEAWMGPWLSSFGFVVICVETNTRTDSADARAAELLAALNWLTTQSPVKGQIDPGRLSVLGHSAGGAGAILAAERQPSLKAMIGLAPGFPGNGLSMATDTVPTLVIGGQNDTVVTPSYLSGLYATLPGTTQSGFAQIAGADHVYYTRPNNVEMKLLIPWLKLFVDSDTRYSPFLCPALPDPSAVSIYQPKCPYTPPGGSTPPPSTSSGPPMSPAGGRPVHAVGAGKCLDVPGLSATAGTQTDIRTCDGGAGQLWTRASAGRLTVQTGGSTMCLDAAGRGASPGTKVQIWPCNGGSNQQWNVNANGTITGTQSGLCLDVTGGSTADGALVELWTCNGGSNQQWTSQ [TEP076] | < 25 µg
